Measured values: CN110903386A (INST MILITARY MEDICINE ACADEMY MILITARY SCIENCES PLA, dated 2020)

Target: 基孔肯雅病毒E2蛋白 (基孔肯雅病毒标准株S27, UniProt Q8JUX5 326-748)
Experiment: cell-based or functional assay

Chain of 基孔肯雅病毒E2蛋白 (Q8JUX5 326-748 limits assumed): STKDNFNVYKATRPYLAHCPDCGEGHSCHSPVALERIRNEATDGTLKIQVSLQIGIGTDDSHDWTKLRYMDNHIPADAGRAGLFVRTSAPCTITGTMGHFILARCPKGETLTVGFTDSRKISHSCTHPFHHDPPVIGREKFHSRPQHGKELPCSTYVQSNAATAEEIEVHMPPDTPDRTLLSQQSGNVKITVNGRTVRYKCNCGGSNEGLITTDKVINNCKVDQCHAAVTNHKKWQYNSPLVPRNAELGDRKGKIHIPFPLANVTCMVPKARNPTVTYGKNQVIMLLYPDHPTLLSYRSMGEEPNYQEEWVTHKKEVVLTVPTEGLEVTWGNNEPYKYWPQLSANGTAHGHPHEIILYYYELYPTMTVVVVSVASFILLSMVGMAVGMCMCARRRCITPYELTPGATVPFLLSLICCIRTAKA

B1: 抗基孔肯雅病毒全人源单克隆抗体8D1 (antibody, human IgG1, kappa, V domains shown)
VH: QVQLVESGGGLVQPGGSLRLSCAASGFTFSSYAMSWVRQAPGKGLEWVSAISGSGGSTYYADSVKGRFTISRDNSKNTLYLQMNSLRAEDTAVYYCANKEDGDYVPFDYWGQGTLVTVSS
VL: DIVMTQSPATLSASVGDRVTITCRASQSISSYLNWYQQKPGKAPKLLIYAASSLQSGVPSRFSGSGSGTDFTLTISSLQPEDFATYYCQQSYFFGPGTKVDIKR
With B1 the “IC50, Vero细胞中和实验 (结晶紫染色, 细胞活率)” value was 0.12 µg/mL.
